Data: the Human Domainome abundance scans (Beltran et al. 2025)
± gives the uncertainty stated by the source.

B1: POU domain, class 4, transcription factor 1, residues 266 to 347; numbered along this chain, Q01851 (parent)
chain: RELEAFAERFKQRRIKLGVTQADVGSALANLKIPGVGSLSQSTICRFESLTLSHNNMIALKPILQAWLEEAEGAQREKMNKP

Variants of: B1
Test: abundance fitness (aPCA) (normalised: wild type 0, dead -1); higher = more abundant; growth selection in yeast, the domain comes from the species named
Details: Homo sapiens

Question: For RELEAFAERFKQRRIKLGVTQADVGSALRNLKIPGVGSLSQSTICRFESLTLSHNNMIALKPILQAWLEEAEGAQREKMNKP [A29R], which abundance fitness is on record?
Answer: The abundance fitness was 0.083 ± 0.087.

Question: For RELEAFAERFKQRRIKLGVTQADVGSALVNLKIPGVGSLSQSTICRFESLTLSHNNMIALKPILQAWLEEAEGAQREKMNKP [A29V], which abundance fitness is on record?
Answer: Its abundance fitness is 0.088 ± 0.35.

Question: With RELEAFAERFKQRRIKLGVTQADVGSALWNLKIPGVGSLSQSTICRFESLTLSHNNMIALKPILQAWLEEAEGAQREKMNKP [A29W] as the variant, how does the abundance fitness read?
Answer: The abundance fitness was -0.605 ± 0.5.

Question: With RELEAFAERFKQRRIKLGVTQADVGSALAALKIPGVGSLSQSTICRFESLTLSHNNMIALKPILQAWLEEAEGAQREKMNKP [N30A] as the variant, how does the abundance fitness read?
Answer: The abundance fitness was 0.028 ± 0.059.

Question: For RELEAFAERFKQRRIKLGVTQADVGSALACLKIPGVGSLSQSTICRFESLTLSHNNMIALKPILQAWLEEAEGAQREKMNKP [N30C], which abundance fitness is on record?
Answer: The abundance fitness was -0.337 ± 0.17.

Question: For RELEAFAERFKQRRIKLGVTQADVGSALAELKIPGVGSLSQSTICRFESLTLSHNNMIALKPILQAWLEEAEGAQREKMNKP [N30E], which abundance fitness is on record?
Answer: The abundance fitness was -0.043 ± 0.072.

Question: For RELEAFAERFKQRRIKLGVTQADVGSALAFLKIPGVGSLSQSTICRFESLTLSHNNMIALKPILQAWLEEAEGAQREKMNKP [N30F], which abundance fitness is on record?
Answer: Its abundance fitness is 0.037 ± 0.13.

Question: For RELEAFAERFKQRRIKLGVTQADVGSALAGLKIPGVGSLSQSTICRFESLTLSHNNMIALKPILQAWLEEAEGAQREKMNKP [N30G], which abundance fitness is on record?
Answer: Its abundance fitness is -0.009 ± 0.041.

Question: Which abundance fitness does the source give for RELEAFAERFKQRRIKLGVTQADVGSALAHLKIPGVGSLSQSTICRFESLTLSHNNMIALKPILQAWLEEAEGAQREKMNKP [N30H] here?
Answer: The abundance fitness was 0.054 ± 0.15.

Question: With RELEAFAERFKQRRIKLGVTQADVGSALAILKIPGVGSLSQSTICRFESLTLSHNNMIALKPILQAWLEEAEGAQREKMNKP [N30I] as the variant, how does the abundance fitness read?
Answer: The abundance fitness was 0.054 ± 0.13.

Question: With RELEAFAERFKQRRIKLGVTQADVGSALAKLKIPGVGSLSQSTICRFESLTLSHNNMIALKPILQAWLEEAEGAQREKMNKP [N30K] as the variant, how does the abundance fitness read?
Answer: The abundance fitness was 0.113 ± 0.088.

Question: For RELEAFAERFKQRRIKLGVTQADVGSALALLKIPGVGSLSQSTICRFESLTLSHNNMIALKPILQAWLEEAEGAQREKMNKP [N30L], which abundance fitness is on record?
Answer: The abundance fitness was -0.084 ± 0.088.

Question: For RELEAFAERFKQRRIKLGVTQADVGSALAMLKIPGVGSLSQSTICRFESLTLSHNNMIALKPILQAWLEEAEGAQREKMNKP [N30M], which abundance fitness is on record?
Answer: Its abundance fitness is -0.104 ± 0.09.

Question: With RELEAFAERFKQRRIKLGVTQADVGSALAPLKIPGVGSLSQSTICRFESLTLSHNNMIALKPILQAWLEEAEGAQREKMNKP [N30P] as the variant, how does the abundance fitness read?
Answer: The abundance fitness was 0.06 ± 0.1.

Question: With RELEAFAERFKQRRIKLGVTQADVGSALAQLKIPGVGSLSQSTICRFESLTLSHNNMIALKPILQAWLEEAEGAQREKMNKP [N30Q] as the variant, how does the abundance fitness read?
Answer: Its abundance fitness is 0.026 ± 0.071.

Question: With RELEAFAERFKQRRIKLGVTQADVGSALARLKIPGVGSLSQSTICRFESLTLSHNNMIALKPILQAWLEEAEGAQREKMNKP [N30R] as the variant, how does the abundance fitness read?
Answer: The abundance fitness was -0.063 ± 0.054.

Question: With RELEAFAERFKQRRIKLGVTQADVGSALASLKIPGVGSLSQSTICRFESLTLSHNNMIALKPILQAWLEEAEGAQREKMNKP [N30S] as the variant, how does the abundance fitness read?
Answer: Its abundance fitness is 0.091 ± 0.08.

Question: With RELEAFAERFKQRRIKLGVTQADVGSALATLKIPGVGSLSQSTICRFESLTLSHNNMIALKPILQAWLEEAEGAQREKMNKP [N30T] as the variant, how does the abundance fitness read?
Answer: Its abundance fitness is -0.046 ± 0.077.

Question: For RELEAFAERFKQRRIKLGVTQADVGSALAVLKIPGVGSLSQSTICRFESLTLSHNNMIALKPILQAWLEEAEGAQREKMNKP [N30V], which abundance fitness is on record?
Answer: Its abundance fitness is -0.233 ± 0.061.

Question: For RELEAFAERFKQRRIKLGVTQADVGSALAWLKIPGVGSLSQSTICRFESLTLSHNNMIALKPILQAWLEEAEGAQREKMNKP [N30W], which abundance fitness is on record?
Answer: Its abundance fitness is -0.144 ± 0.064.

Question: With RELEAFAERFKQRRIKLGVTQADVGSALAYLKIPGVGSLSQSTICRFESLTLSHNNMIALKPILQAWLEEAEGAQREKMNKP [N30Y] as the variant, how does the abundance fitness read?
Answer: The abundance fitness was 0.033 ± 0.34.

Question: With RELEAFAERFKQRRIKLGVTQADVGSALANAKIPGVGSLSQSTICRFESLTLSHNNMIALKPILQAWLEEAEGAQREKMNKP [L31A] as the variant, how does the abundance fitness read?
Answer: Its abundance fitness is -0.059 ± 0.029.

Question: For RELEAFAERFKQRRIKLGVTQADVGSALANCKIPGVGSLSQSTICRFESLTLSHNNMIALKPILQAWLEEAEGAQREKMNKP [L31C], which abundance fitness is on record?
Answer: The abundance fitness was -0.057 ± 0.037.

Question: For RELEAFAERFKQRRIKLGVTQADVGSALANDKIPGVGSLSQSTICRFESLTLSHNNMIALKPILQAWLEEAEGAQREKMNKP [L31D], which abundance fitness is on record?
Answer: The abundance fitness was -0.152 ± 0.046.

Question: For RELEAFAERFKQRRIKLGVTQADVGSALANGKIPGVGSLSQSTICRFESLTLSHNNMIALKPILQAWLEEAEGAQREKMNKP [L31G], which abundance fitness is on record?
Answer: Its abundance fitness is -0.223 ± 0.024.

Question: Which abundance fitness does the source give for RELEAFAERFKQRRIKLGVTQADVGSALANHKIPGVGSLSQSTICRFESLTLSHNNMIALKPILQAWLEEAEGAQREKMNKP [L31H] here?
Answer: Its abundance fitness is -0.014 ± 0.058.

Question: Which abundance fitness does the source give for RELEAFAERFKQRRIKLGVTQADVGSALANIKIPGVGSLSQSTICRFESLTLSHNNMIALKPILQAWLEEAEGAQREKMNKP [L31I] here?
Answer: The abundance fitness was -0.028 ± 0.052.

Question: With RELEAFAERFKQRRIKLGVTQADVGSALANKKIPGVGSLSQSTICRFESLTLSHNNMIALKPILQAWLEEAEGAQREKMNKP [L31K] as the variant, how does the abundance fitness read?
Answer: The abundance fitness was 0.038 ± 0.039.

Question: With RELEAFAERFKQRRIKLGVTQADVGSALANMKIPGVGSLSQSTICRFESLTLSHNNMIALKPILQAWLEEAEGAQREKMNKP [L31M] as the variant, how does the abundance fitness read?
Answer: Its abundance fitness is 0.003 ± 0.035.

Question: For RELEAFAERFKQRRIKLGVTQADVGSALANNKIPGVGSLSQSTICRFESLTLSHNNMIALKPILQAWLEEAEGAQREKMNKP [L31N], which abundance fitness is on record?
Answer: The abundance fitness was -0.168 ± 0.061.

Question: For RELEAFAERFKQRRIKLGVTQADVGSALANPKIPGVGSLSQSTICRFESLTLSHNNMIALKPILQAWLEEAEGAQREKMNKP [L31P], which abundance fitness is on record?
Answer: Its abundance fitness is -0.26 ± 0.045.

Question: Which abundance fitness does the source give for RELEAFAERFKQRRIKLGVTQADVGSALANQKIPGVGSLSQSTICRFESLTLSHNNMIALKPILQAWLEEAEGAQREKMNKP [L31Q] here?
Answer: Its abundance fitness is -0.04 ± 0.038.

Question: Which abundance fitness does the source give for RELEAFAERFKQRRIKLGVTQADVGSALANRKIPGVGSLSQSTICRFESLTLSHNNMIALKPILQAWLEEAEGAQREKMNKP [L31R] here?
Answer: The abundance fitness was -0.005 ± 0.024.

Question: For RELEAFAERFKQRRIKLGVTQADVGSALANSKIPGVGSLSQSTICRFESLTLSHNNMIALKPILQAWLEEAEGAQREKMNKP [L31S], which abundance fitness is on record?
Answer: Its abundance fitness is -0.066 ± 0.031.
